Measured values as given in the supplement of paper PMC12855868.

B1: library; numbered along this chain (parent)
chain: MAAAGGARLLRAASAVLGGPAGRWLHHAGSRAGSSGLLRNRGPGGSAEASRSLSVSARARSSSEDKITVHFINRDGETLTTKGKVGDSLLDVVVENNLDIDGFGACEGTLACSTCHLIFEDHIYEKLDAITDEENDMLDLAYGLTDRSRLGCQICLTKSMDNMTVRVPETVADARQSIDVGKTS

Variants of: B1
Assay: scaled log2 fold change in cell abundance, elesclomol vs control (0 = silent mean, 1 = nonsense mean) (scaled log2 ratio); higher = higher viability under elesclomol (loss of FDX1 cuproptosis function)
Details: glucose 10 mM
Experimental: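 Deep mutational scan of full-length human FDX1: a pooled saturation-mutagenesis ORF library (every residue 2-184 mutated to all 19 amino acids plus stop, and silent codons where available) was expressed by lentivirus in FDX1-knockout ABC1 (14 days) or HEK293T (11 days) cells grown with elesclomol (ES) or DMSO control. Variant abundance came from ORF sequencing. The log2 fold change (ES vs control, mean of duplicates) was centred on the silent-variant mean (0) and scaled to the nonsense-variant mean (1). Higher values mean greater viability under ES, i.e. loss of FDX1 function in cuproptosis.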

[1] = with ABC1 FDX1 KO, elesclomol 5 nM, 14 days
[2] = with HEK293T FDX1 KO, elesclomol 40 nM, 11 days
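Further: variant abundance is its share of total variant reads in each endpoint sample, from next-generation sequencing of the integrated ORF PCR-amplified out of genomic DNA.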

## MAAAGGARLLRAASAVLGGPAGRWLHHAGSRAGSSGLLRNRFPGGSAEASRSLSVSARARSSSEDKITVHFINRDGETLTTKGKVGDSLLDVVVENNLDIDGFGACEGTLACSTCHLIFEDHIYEKLDAITDEENDMLDLAYGLTDRSRLGCQICLTKSMDNMTVRVPETVADARQSIDVGKTS
[1]
  scaled log2 fold change: -0.0705
[2]
  scaled log2 fold change: -0.21

## MAAAGGARLLRAASAVLGGPAGRWLHHAGSRAGSSGLLRNRCPGGSAEASRSLSVSARARSSSEDKITVHFINRDGETLTTKGKVGDSLLDVVVENNLDIDGFGACEGTLACSTCHLIFEDHIYEKLDAITDEENDMLDLAYGLTDRSRLGCQICLTKSMDNMTVRVPETVADARQSIDVGKTS
[1]
  scaled log2 fold change: 0.12
[2]
  scaled log2 fold change: 0.316

## MAAAGGARLLRAASAVLGGPAGRWLHHAGSRAGSSGLLRNREPGGSAEASRSLSVSARARSSSEDKITVHFINRDGETLTTKGKVGDSLLDVVVENNLDIDGFGACEGTLACSTCHLIFEDHIYEKLDAITDEENDMLDLAYGLTDRSRLGCQICLTKSMDNMTVRVPETVADARQSIDVGKTS
[1]
  scaled log2 fold change: -0.302
[2]
  scaled log2 fold change: 0.67

## MAAAGGARLLRAASAVLGGPAGRWLHHAGSRAGSSGLLRNRHPGGSAEASRSLSVSARARSSSEDKITVHFINRDGETLTTKGKVGDSLLDVVVENNLDIDGFGACEGTLACSTCHLIFEDHIYEKLDAITDEENDMLDLAYGLTDRSRLGCQICLTKSMDNMTVRVPETVADARQSIDVGKTS
[1]
  scaled log2 fold change: 0.257
[2]
  scaled log2 fold change: -0.419

## MAAAGGARLLRAASAVLGGPAGRWLHHAGSRAGSSGLLRNRDPGGSAEASRSLSVSARARSSSEDKITVHFINRDGETLTTKGKVGDSLLDVVVENNLDIDGFGACEGTLACSTCHLIFEDHIYEKLDAITDEENDMLDLAYGLTDRSRLGCQICLTKSMDNMTVRVPETVADARQSIDVGKTS
[1]
  scaled log2 fold change: -0.168
[2]
  scaled log2 fold change: 0.162

## MAAAGGARLLRAASAVLGGPAGRWLHHAGSRAGSSGLLRNRAPGGSAEASRSLSVSARARSSSEDKITVHFINRDGETLTTKGKVGDSLLDVVVENNLDIDGFGACEGTLACSTCHLIFEDHIYEKLDAITDEENDMLDLAYGLTDRSRLGCQICLTKSMDNMTVRVPETVADARQSIDVGKTS
[1]
  scaled log2 fold change: -0.139
[2]
  scaled log2 fold change: 0.0969

## MAAAGGARLLRAASAVLGGPAGRWLHHAGSRAGSSGLLRNVGPGGSAEASRSLSVSARARSSSEDKITVHFINRDGETLTTKGKVGDSLLDVVVENNLDIDGFGACEGTLACSTCHLIFEDHIYEKLDAITDEENDMLDLAYGLTDRSRLGCQICLTKSMDNMTVRVPETVADARQSIDVGKTS
[1]
  scaled log2 fold change: -0.196
[2]
  scaled log2 fold change: -0.0931

## MAAAGGARLLRAASAVLGGPAGRWLHHAGSRAGSSGLLRNTGPGGSAEASRSLSVSARARSSSEDKITVHFINRDGETLTTKGKVGDSLLDVVVENNLDIDGFGACEGTLACSTCHLIFEDHIYEKLDAITDEENDMLDLAYGLTDRSRLGCQICLTKSMDNMTVRVPETVADARQSIDVGKTS
[1]
  scaled log2 fold change: 0.311
[2]
  scaled log2 fold change: 0.274

## MAAAGGARLLRAASAVLGGPAGRWLHHAGSRAGSSGLLRNLGPGGSAEASRSLSVSARARSSSEDKITVHFINRDGETLTTKGKVGDSLLDVVVENNLDIDGFGACEGTLACSTCHLIFEDHIYEKLDAITDEENDMLDLAYGLTDRSRLGCQICLTKSMDNMTVRVPETVADARQSIDVGKTS
[1]
  scaled log2 fold change: 0.167
[2]
  scaled log2 fold change: 0.278

## MAAAGGARLLRAASAVLGGPAGRWLHHAGSRAGSSGLLRNWGPGGSAEASRSLSVSARARSSSEDKITVHFINRDGETLTTKGKVGDSLLDVVVENNLDIDGFGACEGTLACSTCHLIFEDHIYEKLDAITDEENDMLDLAYGLTDRSRLGCQICLTKSMDNMTVRVPETVADARQSIDVGKTS
[1]
  scaled log2 fold change: 0.107
[2]
  scaled log2 fold change: 0.227

## MAAAGGARLLRAASAVLGGPAGRWLHHAGSRAGSSGLLRNMGPGGSAEASRSLSVSARARSSSEDKITVHFINRDGETLTTKGKVGDSLLDVVVENNLDIDGFGACEGTLACSTCHLIFEDHIYEKLDAITDEENDMLDLAYGLTDRSRLGCQICLTKSMDNMTVRVPETVADARQSIDVGKTS
[1]
  scaled log2 fold change: 0.173
[2]
  scaled log2 fold change: 0.0788

## MAAAGGARLLRAASAVLGGPAGRWLHHAGSRAGSSGLLRNSGPGGSAEASRSLSVSARARSSSEDKITVHFINRDGETLTTKGKVGDSLLDVVVENNLDIDGFGACEGTLACSTCHLIFEDHIYEKLDAITDEENDMLDLAYGLTDRSRLGCQICLTKSMDNMTVRVPETVADARQSIDVGKTS
[1]
  scaled log2 fold change: -0.22
[2]
  scaled log2 fold change: 0.473

## MAAAGGARLLRAASAVLGGPAGRWLHHAGSRAGSSGLLRNQGPGGSAEASRSLSVSARARSSSEDKITVHFINRDGETLTTKGKVGDSLLDVVVENNLDIDGFGACEGTLACSTCHLIFEDHIYEKLDAITDEENDMLDLAYGLTDRSRLGCQICLTKSMDNMTVRVPETVADARQSIDVGKTS
[1]
  scaled log2 fold change: -0.31
[2]
  scaled log2 fold change: 0.698

## MAAAGGARLLRAASAVLGGPAGRWLHHAGSRAGSSGLLRNYGPGGSAEASRSLSVSARARSSSEDKITVHFINRDGETLTTKGKVGDSLLDVVVENNLDIDGFGACEGTLACSTCHLIFEDHIYEKLDAITDEENDMLDLAYGLTDRSRLGCQICLTKSMDNMTVRVPETVADARQSIDVGKTS
[1]
  scaled log2 fold change: -0.195
[2]
  scaled log2 fold change: -0.051

## MAAAGGARLLRAASAVLGGPAGRWLHHAGSRAGSSGLLRNNGPGGSAEASRSLSVSARARSSSEDKITVHFINRDGETLTTKGKVGDSLLDVVVENNLDIDGFGACEGTLACSTCHLIFEDHIYEKLDAITDEENDMLDLAYGLTDRSRLGCQICLTKSMDNMTVRVPETVADARQSIDVGKTS
[1]
  scaled log2 fold change: 0.199
[2]
  scaled log2 fold change: -0.371

## MAAAGGARLLRAASAVLGGPAGRWLHHAGSRAGSSGLLRNPGPGGSAEASRSLSVSARARSSSEDKITVHFINRDGETLTTKGKVGDSLLDVVVENNLDIDGFGACEGTLACSTCHLIFEDHIYEKLDAITDEENDMLDLAYGLTDRSRLGCQICLTKSMDNMTVRVPETVADARQSIDVGKTS
[1]
  scaled log2 fold change: -0.0791
[2]
  scaled log2 fold change: -0.655
